The source of these data is the supplement of paper PMC10126150.

The data set deals with ATP. Put plainly: switch fluorescence ratio, 500 uM ATP over buffer (Cy3 cluster intensity, sum of 5 cycles each) (fold (ratio)); higher = stronger signal-on switching upon ATP binding; sequences stand for … in TCGTCGGCAGCGTCAGATGTGTATAAGAGACAGTTTTTTTTTTTTTTTTTTTTTTTTT…TC. Conditions: aptamer strand: ATP DNA aptamer (quencher-CACCTGGGGGAGTATTGCGGAGGAAGG + anchor), 100 nM annealed; ATP concentration: 500 uM. The essentials:
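Per cluster, summed Cy3 intensity from the target cycles was divided by that from the buffer cycles to give the fluorescence ratio, then averaged per switch-domain sequence. Clusters outside 100-1000 RFU were excluded. The Cy3-labelled switching-strand clusters, on a modified Illumina MiSeq flow-cell, were annealed to 100 nM quencher-labelled ATP aptamer and imaged in selection buffer, then after 15 min with 500 uM ATP at 22 °C, for five cycles with NaOH stripping and re-annealing between them.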

± gives the standard deviation of the averaged measurements.
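Also: ATP exposure 15 min at 22 °C before imaging.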

With ATGCATTACT, the switch fluorescence ratio was 1.61 ± 0.11.

On to ATGCATTTTG, for which the switch fluorescence ratio amounted to 0.97 ± 0.03.

With ATGCCCGTG, the switch fluorescence ratio came out at 0.985 ± 0.014.

For ATGCCCTTCG, the switch fluorescence ratio is 1.04 ± 0.013.

As to ATGCCGAAGG, the switch fluorescence ratio amounted to 0.985 ± 0.054.

Turning to ATGCCGGGGT, the switch fluorescence ratio came to 1.05 ± 0.013.

Regarding ATGCCGGGTG, the switch fluorescence ratio was 1.07 ± 0.047.

In the case of ATGCCGGTAT, the switch fluorescence ratio was 0.999 ± 0.053.

ATGCCGTGGC: the switch fluorescence ratio was 1.02 ± 0.033.

ATGCCTAGTG: the switch fluorescence ratio worked out at 0.994 ± 0.013.

With ATGCCTGGGT, the switch fluorescence ratio came to 0.999 ± 0.034.

For ATGCGAATCG, the switch fluorescence ratio came to 0.99 ± 0.038.

For ATGCGCAGGG, the switch fluorescence ratio came to 1.04 ± 0.051.

For ATGCGGGCCA, the switch fluorescence ratio was 1.012 ± 0.0061.

For the sequence ATGCGGTATG, the switch fluorescence ratio came out at 1 ± 0.0024.

As to ATGCGTACTT, the switch fluorescence ratio came out at 1.01 ± 0.02.

With ATGCGTGGGG, the switch fluorescence ratio amounted to 1.02 ± 0.029.

For the sequence ATGCTAGGGT, the switch fluorescence ratio was found to be 0.9905 ± 0.0055.

ATGCTATAGT: the switch fluorescence ratio came out at 1.021 ± 0.0025.

On to ATGCTCGGGG, for which the switch fluorescence ratio worked out at 1 ± 0.015.

For the sequence ATGCTGGGTT, the switch fluorescence ratio came to 0.993 ± 0.048.

As to ATGCTTATAC, the switch fluorescence ratio was 2.31 ± 0.36.

With ATGCTTTGGG, the switch fluorescence ratio was 1.036 ± 0.0061.

As for ATGGAAATTG, the switch fluorescence ratio is 0.954 ± 0.019.

Turning to ATGGAACGGT, the switch fluorescence ratio amounted to 1.003 ± 0.0053.

As to ATGGAAGGGC, the switch fluorescence ratio came to 1.01 ± 0.011.

Regarding ATGGAAGTTT, the switch fluorescence ratio stood at 1.01 ± 0.022.

ATGGAATCAG: the switch fluorescence ratio was determined as 1.015 ± 0.01.

As for ATGGACAATA, the switch fluorescence ratio was found to be 1.07 ± 0.026.

For ATGGACGGTA, the switch fluorescence ratio turned out to be 1.105 ± 0.0076.

For the sequence ATGGACGTTT, the switch fluorescence ratio amounted to 0.967 ± 0.048.

Turning to ATGGACTCAA, the switch fluorescence ratio was 1.051 ± 0.0073.

ATGGAGAACT: the switch fluorescence ratio is 0.976 ± 0.024.

In the case of ATGGAGAGAA, the switch fluorescence ratio stood at 1.01 ± 0.039.

On to ATGGAGCGTG, for which the switch fluorescence ratio is 0.994 ± 0.018.

As for ATGGAGGGGA, the switch fluorescence ratio came to 1 ± 0.021.

ATGGAGTTTG: the switch fluorescence ratio amounted to 0.9901 ± 0.0057.

For ATGGATGGTG, the switch fluorescence ratio is 0.96 ± 0.029.

Turning to ATGGATTGGC, the switch fluorescence ratio is 1.08 ± 0.035.

Take ATGGATTGGT: the switch fluorescence ratio worked out at 0.984 ± 0.012.

Turning to ATGGATTTAG, the switch fluorescence ratio came out at 1.014 ± 0.008.

Take ATGGCAAAAG: the switch fluorescence ratio stood at 1.01 ± 0.045.

For the sequence ATGGCAACAT, the switch fluorescence ratio came out at 1.01 ± 0.041.

In the case of ATGGCAATGT, the switch fluorescence ratio came out at 1.08 ± 0.013.

For ATGGCACTGG, the switch fluorescence ratio turned out to be 1.07 ± 0.013.

In the case of ATGGCAGGCG, the switch fluorescence ratio is 0.995 ± 0.04.

Regarding ATGGCATCGG, the switch fluorescence ratio was found to be 1.005 ± 0.0035.

As to ATGGCATGCT, the switch fluorescence ratio came out at 1.02 ± 0.021.

On to ATGGCCCGGC, for which the switch fluorescence ratio was 1.03 ± 0.017.

As for ATGGCGGATG, the switch fluorescence ratio amounted to 1.01 ± 0.063.

Consider ATGGCGGCGG, for which the switch fluorescence ratio was 1.01 ± 0.014.

Consider ATGGCGTGGC, for which the switch fluorescence ratio is 0.986 ± 0.018.

In the case of ATGGCTTGGA, the switch fluorescence ratio amounted to 0.996 ± 0.029.

As for ATGGGAAATC, the switch fluorescence ratio was determined as 0.9978 ± 0.0044.

For ATGGGACAGG, the switch fluorescence ratio worked out at 0.999 ± 0.033.

On to ATGGGAGCCA, for which the switch fluorescence ratio is 1 ± 0.028.

With ATGGGAGCTT, the switch fluorescence ratio was 1.01 ± 0.025.

In the case of ATGGGAGGGA, the switch fluorescence ratio was found to be 1.01 ± 0.021.

ATGGGCAGGG: the switch fluorescence ratio was 0.9931 ± 0.0056.

With ATGGGCAGGT, the switch fluorescence ratio is 0.985 ± 0.02.

Regarding ATGGGCCCCT, the switch fluorescence ratio worked out at 0.987 ± 0.025.

Regarding ATGGGCGCGC, the switch fluorescence ratio is 0.982 ± 0.036.

Regarding ATGGGCGGGC, the switch fluorescence ratio worked out at 1.01 ± 0.03.

For ATGGGCGTTG, the switch fluorescence ratio stood at 0.9658 ± 0.0037.

On to ATGGGCTTTG, for which the switch fluorescence ratio was 0.9674 ± 0.0093.

As to ATGGGGACCT, the switch fluorescence ratio was 1.17 ± 0.17.
